Legend:
Experiment in all cases: BLI
[1] = target: FcγRIa (UniProt P12314)
[2] = target: FcγRIIb/c (UniProt P31994)
[3] = target: FcγRIIa_(H167) (UniProt P12318)
[4] = target: FcγRIIIa_(V176) (UniProt P08637)
[5] = target: FcγRIIIa_(F176) (UniProt P08637)

Chain of UniProt P12314 (P12314 16-292): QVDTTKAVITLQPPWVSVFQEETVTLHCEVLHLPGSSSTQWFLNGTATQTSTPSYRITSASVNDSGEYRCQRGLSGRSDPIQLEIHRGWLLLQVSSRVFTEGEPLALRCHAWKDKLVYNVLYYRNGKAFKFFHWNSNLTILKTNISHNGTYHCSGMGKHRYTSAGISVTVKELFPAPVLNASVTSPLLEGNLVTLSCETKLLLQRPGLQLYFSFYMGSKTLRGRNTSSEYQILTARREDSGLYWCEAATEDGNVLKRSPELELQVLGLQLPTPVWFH
Chain of UniProt P31994 (P31994 43-217): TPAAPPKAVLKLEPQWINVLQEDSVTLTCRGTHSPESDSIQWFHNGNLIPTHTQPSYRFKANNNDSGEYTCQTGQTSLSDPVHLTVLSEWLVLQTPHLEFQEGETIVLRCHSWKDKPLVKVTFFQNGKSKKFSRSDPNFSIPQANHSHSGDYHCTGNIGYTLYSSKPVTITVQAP
Chain of UniProt P12318 (P12318 34-217): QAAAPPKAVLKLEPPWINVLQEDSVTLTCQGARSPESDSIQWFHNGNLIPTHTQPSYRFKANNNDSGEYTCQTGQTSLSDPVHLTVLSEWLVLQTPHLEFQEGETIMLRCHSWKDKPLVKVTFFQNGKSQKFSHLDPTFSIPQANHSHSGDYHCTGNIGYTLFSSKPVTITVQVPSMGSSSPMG

## Pertuzumab IgG4 VH4 (antibody)
[1]
  Kd: 191 nM

## Pertuzumab IgG4 VH2 (antibody)
[1]
  Kd: 75.7 nM

## Pertuzumab IgG4 VH3 (antibody)
[1]
  Kd: 127 nM

## Pertuzumab IgG2 VH1 (antibody)
[2]
  kon: 176000 M⁻¹ s⁻¹

## Pertuzumab IgG4 VH7 (antibody)
[1]
  Kd: 20.7 nM

## Pertuzumab IgG2 VH4 (antibody)
[2]
  koff: 0.00934 s⁻¹
[3]
  kon: 360000 M⁻¹ s⁻¹

## Pertuzumab IgG3 VH4 (antibody)
[2]
  kon: 72900 M⁻¹ s⁻¹
[4]
  Kd: 88.7 nM

## Pertuzumab IgG3 VH1 (antibody)
[1]
  koff: 0.000553 s⁻¹
  kon: 208000 M⁻¹ s⁻¹
[5]
  Kd: 92.9 nM
  koff: 0.0328 s⁻¹
  kon: 160000 M⁻¹ s⁻¹

## Pertuzumab IgG4 VH1 (antibody)
[1]
  Kd: 3.62 nM

## Pertuzumab IgG4 VH6 (antibody)
[1]
  Kd: 7.15 nM

## Pertuzumab IgG2 VH3 (antibody)
[2]
  kon: 308000 M⁻¹ s⁻¹

## Pertuzumab IgG3 VH3 (antibody)
[4]
  Kd: 181 nM
  koff: 0.0178 s⁻¹
  kon: 13500 M⁻¹ s⁻¹
[3]
  Kd: 5.75 nM

## Pertuzumab IgG3 VH5 (antibody)
[2]
  Kd: 24.8 nM
[3]
  koff: 0.00279 s⁻¹

## Pertuzumab IgG4 VH5 (antibody)
[1]
  Kd: 151 nM

Reference: publication doi:10.1101/2023.03.26.534243
